Experimental data as given in patent publication US20150118698A1.

Molecular target: monoclonal antibody NB206-15B6-F8, raised against MMCN-151 antigen
Experiment: competitive ELISA on Biotin-… coated plate

OD (450-650), signal at full inhibition: 0.5 OD (450-650) | OD (450-650), signal without inhibition: 2 OD (450-650)
Binder: EDIEDGTFSK [synthetic free peptide … (MMCN-151)]
